From patent US8461305B2, “L-fucose α1→6 specific lectin” (J-Oil Mills, Inc., priority 2008, dated 2013)

What was measured:
[1] = tested on: Mucin (bovine); assay: detection of glycoproteins by ELISA with biotin-labeled lectin; assay type: binding; settings: (8) Mucin (bovine), O-linked glycan including L-fucose; thyroglobulin value = 100%
Experimental: (§1) PTL of Example 1, SRL of Example 2, AAL of Comparison Example 1, AOL of Comparison Example 2, and LCA of Comparison Example 3 that were biotin-labeled were used to the detection of glycoproteins by the enzyme-linked immunosorbent assay (ELISA).
(§2) The glycoprotein and albumin as protein not including a sugar chain as a control were dissolved in 0.1 M carbonic acid buffer solution (pH 9.5) at 1 mg/ml. Then, the resultant solution was added to a microtiter plate (Nunc 439454) and was incubated at 4 degrees C. overnight. Then, the resultant solution was cleaned by 0.05% Tween/PBS three times. Thereafter, 1% BSA/PBS was added to wells and the solution was incubated at 37 degrees C. for one hour. Then, after the solution was cleaned by 0.05% Tween/PBS three times, biotin labeled-lectin appropriately diluted by 1% BSA/0.05% Tween/PBS was added to the wells and the solution was incubated at 37 degrees C. for one hour. After the solution was cleaned by 0.05% Tween/PBS three times, HRP labeled streptavidin solution diluted by 1% BSA/0.05% Tween/PBS was added to wells and the solution was incubated at 37 degrees C. for 30 minutes. After the solution was cleaned by 0.05% Tween/PBS three times, TMB Peroxidase substrate system (KPL) was added and the resultant solution was incubated at a room temperature for 10 minutes while light was being blocked.
(§3) The reaction was stopped by 1 M phosphoric acid. Then, a microplate reader (MPR-A4i, TOSOH CORPORATION) was used to measure the absorbance at 450 nm. Based on this value, reaction value ([absorbance at 450 nm of a well for which glycoprotein was solid-phased to the plate and reacted]−[absorbance at 450 nm of a well for which glycoprotein was not solid-phased to the plate and reacted] was calculated. Next, for each lectin, the interaction strength (relative value) to each glycoprotein was calculated based on an assumption that the glycoprotein (thyroglobulin) value was 100%. The calculation result is shown in Table 9 and FIG. 19 to FIG. 23.

[2] = tested on: α1-acidic glycoprotein (human); assay: as above; assay type: binding; settings: (5) α1-acidic glycoprotein (human), N-linked glycan having α1→3 L-fucose; thyroglobulin value = 100%
Experimental: as §1, §2, §3

[3] = tested on: Immune-globulin G (human); assay: as above; assay type: binding; settings: (3) Immune-globulin G (human), N-linked glycan having α1→6 L-fucose; thyroglobulin value = 100%
Experimental: as §1, §2, §3

[4] = molecular target: T1, Invertase (yeast) (Saccharomyces cerevisiae, UniProt P00724); assay: as above; assay type: binding; settings: (6) Invertase (yeast), High mannose-type glycan; thyroglobulin value = 100%
T1 sequence (P00724 20-532): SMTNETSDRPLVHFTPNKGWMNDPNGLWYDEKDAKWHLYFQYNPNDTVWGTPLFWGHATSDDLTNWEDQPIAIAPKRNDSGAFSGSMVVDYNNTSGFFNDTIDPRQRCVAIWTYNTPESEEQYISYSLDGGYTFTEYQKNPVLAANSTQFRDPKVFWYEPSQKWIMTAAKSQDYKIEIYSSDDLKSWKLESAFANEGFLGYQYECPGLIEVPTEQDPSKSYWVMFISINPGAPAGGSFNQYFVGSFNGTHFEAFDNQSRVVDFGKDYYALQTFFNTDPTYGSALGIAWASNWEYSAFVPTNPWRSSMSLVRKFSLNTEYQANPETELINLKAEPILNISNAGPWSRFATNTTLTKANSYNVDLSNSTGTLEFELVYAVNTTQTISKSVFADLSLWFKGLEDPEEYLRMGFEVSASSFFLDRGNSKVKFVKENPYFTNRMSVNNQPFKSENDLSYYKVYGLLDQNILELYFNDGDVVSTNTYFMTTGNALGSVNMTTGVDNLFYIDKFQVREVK
Experimental: as §1, §2, §3

[5] = molecular target: Thyroglobulin (pig) (Sus scrofa, UniProt F1RRV3); assay: as above; assay type: binding; settings: (1) Thyroglobulin (pig), N-linked glycan having α1→6 L-fucose; thyroglobulin value = 100%
Sequence of Thyroglobulin (pig) (F1RRV3 20-2692): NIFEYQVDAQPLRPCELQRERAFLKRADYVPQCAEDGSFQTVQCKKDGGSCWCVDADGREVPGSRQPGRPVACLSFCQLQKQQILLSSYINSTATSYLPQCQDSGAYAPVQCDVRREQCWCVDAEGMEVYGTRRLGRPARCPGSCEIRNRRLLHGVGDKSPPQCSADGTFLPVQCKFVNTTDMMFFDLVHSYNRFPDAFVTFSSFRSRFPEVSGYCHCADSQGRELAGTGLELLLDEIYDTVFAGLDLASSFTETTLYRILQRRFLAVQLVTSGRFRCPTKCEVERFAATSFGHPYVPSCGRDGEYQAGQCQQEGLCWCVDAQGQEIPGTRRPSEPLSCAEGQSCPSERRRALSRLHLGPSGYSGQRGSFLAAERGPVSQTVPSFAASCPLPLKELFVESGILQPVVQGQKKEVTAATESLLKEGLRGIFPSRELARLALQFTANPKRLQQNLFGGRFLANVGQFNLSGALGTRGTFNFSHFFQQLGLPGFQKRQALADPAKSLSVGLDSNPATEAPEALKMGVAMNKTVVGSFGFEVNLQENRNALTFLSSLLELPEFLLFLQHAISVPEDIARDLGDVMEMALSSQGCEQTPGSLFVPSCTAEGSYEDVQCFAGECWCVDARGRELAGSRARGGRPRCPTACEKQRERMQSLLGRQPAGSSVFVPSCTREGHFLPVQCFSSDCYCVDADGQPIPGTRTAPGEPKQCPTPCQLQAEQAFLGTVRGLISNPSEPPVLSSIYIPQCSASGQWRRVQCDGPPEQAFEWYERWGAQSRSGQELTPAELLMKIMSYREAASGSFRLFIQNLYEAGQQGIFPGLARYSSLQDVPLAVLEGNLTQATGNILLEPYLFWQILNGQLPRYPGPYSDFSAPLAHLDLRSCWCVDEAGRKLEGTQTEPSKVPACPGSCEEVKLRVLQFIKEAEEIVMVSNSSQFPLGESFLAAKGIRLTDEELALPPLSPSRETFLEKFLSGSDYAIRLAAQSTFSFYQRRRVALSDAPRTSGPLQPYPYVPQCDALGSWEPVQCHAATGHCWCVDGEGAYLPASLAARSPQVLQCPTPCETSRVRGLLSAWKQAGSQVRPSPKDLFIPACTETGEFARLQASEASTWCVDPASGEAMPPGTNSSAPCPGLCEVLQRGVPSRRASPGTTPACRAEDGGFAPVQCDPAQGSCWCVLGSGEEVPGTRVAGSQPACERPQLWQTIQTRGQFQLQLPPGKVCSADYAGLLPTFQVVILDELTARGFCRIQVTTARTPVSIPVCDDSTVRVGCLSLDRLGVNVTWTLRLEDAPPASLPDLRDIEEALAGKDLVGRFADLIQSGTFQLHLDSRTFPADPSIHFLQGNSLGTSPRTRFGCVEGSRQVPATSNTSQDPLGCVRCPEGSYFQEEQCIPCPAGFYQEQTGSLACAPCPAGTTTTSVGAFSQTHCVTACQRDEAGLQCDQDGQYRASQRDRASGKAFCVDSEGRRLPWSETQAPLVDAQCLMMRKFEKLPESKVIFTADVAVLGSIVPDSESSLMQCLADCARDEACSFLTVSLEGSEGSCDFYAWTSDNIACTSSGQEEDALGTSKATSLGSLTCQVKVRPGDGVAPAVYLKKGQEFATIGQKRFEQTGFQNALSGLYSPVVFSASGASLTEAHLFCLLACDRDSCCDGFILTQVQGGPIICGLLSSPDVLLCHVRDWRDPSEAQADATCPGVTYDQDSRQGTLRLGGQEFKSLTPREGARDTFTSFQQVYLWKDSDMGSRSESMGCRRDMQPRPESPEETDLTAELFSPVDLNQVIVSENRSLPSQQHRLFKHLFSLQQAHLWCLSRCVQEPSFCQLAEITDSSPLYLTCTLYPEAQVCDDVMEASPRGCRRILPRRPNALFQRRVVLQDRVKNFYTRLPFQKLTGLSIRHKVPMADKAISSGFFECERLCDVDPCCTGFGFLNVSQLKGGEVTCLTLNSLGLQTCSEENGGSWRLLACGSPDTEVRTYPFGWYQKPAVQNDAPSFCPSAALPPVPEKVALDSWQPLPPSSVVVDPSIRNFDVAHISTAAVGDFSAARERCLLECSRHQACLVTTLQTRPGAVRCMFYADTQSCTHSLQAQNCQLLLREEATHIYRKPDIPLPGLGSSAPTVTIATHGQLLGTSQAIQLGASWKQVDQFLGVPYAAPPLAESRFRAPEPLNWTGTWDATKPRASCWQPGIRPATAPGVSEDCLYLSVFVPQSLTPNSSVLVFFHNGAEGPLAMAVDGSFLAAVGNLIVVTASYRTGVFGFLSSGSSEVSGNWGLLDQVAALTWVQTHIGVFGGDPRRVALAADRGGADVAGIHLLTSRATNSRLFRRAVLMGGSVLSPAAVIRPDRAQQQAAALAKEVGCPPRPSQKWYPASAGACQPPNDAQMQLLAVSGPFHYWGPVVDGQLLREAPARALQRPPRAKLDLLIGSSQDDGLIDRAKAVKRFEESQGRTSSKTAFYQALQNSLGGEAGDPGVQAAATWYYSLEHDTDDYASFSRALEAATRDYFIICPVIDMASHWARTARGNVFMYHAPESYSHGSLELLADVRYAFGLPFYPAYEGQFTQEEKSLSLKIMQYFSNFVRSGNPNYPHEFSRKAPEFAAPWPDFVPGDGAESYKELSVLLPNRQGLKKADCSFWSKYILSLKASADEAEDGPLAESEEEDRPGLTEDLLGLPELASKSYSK
Experimental: as §1, §2, §3

[6] = molecular target: Transferrin (human) (Homo sapiens, UniProt P02787); assay: as above; assay type: binding; settings: (4) Transferrin (human), N-linked glycan not including α1→6 L-fucose; thyroglobulin value = 100%
Sequence of Transferrin (human) (P02787 20-698): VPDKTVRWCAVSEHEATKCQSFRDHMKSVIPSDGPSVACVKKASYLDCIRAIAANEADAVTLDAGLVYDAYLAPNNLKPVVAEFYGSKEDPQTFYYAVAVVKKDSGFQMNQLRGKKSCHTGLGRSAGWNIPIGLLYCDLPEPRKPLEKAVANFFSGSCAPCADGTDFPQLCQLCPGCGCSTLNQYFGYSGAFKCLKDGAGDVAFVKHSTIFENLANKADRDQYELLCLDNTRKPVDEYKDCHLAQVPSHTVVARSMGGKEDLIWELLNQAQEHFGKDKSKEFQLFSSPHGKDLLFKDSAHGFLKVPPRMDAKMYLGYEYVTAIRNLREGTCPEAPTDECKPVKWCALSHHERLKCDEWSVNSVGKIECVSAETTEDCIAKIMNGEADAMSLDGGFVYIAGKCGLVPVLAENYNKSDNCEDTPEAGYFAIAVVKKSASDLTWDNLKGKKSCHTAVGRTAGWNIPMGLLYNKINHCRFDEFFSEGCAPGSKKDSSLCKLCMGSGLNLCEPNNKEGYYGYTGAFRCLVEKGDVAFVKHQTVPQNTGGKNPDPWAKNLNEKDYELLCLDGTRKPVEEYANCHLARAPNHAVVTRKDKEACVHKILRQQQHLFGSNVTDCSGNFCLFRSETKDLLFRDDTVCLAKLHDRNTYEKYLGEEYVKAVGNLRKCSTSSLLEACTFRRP
Experimental: as §1, §2, §3

[7] = molecular target: Blood serum albumin (bovine) (Bos taurus, UniProt P02769); assay: as above; assay type: binding; settings: (0) Blood serum albumin (bovine), No sugar chain; thyroglobulin value = 100%
Sequence of Blood serum albumin (bovine) (P02769 25-607): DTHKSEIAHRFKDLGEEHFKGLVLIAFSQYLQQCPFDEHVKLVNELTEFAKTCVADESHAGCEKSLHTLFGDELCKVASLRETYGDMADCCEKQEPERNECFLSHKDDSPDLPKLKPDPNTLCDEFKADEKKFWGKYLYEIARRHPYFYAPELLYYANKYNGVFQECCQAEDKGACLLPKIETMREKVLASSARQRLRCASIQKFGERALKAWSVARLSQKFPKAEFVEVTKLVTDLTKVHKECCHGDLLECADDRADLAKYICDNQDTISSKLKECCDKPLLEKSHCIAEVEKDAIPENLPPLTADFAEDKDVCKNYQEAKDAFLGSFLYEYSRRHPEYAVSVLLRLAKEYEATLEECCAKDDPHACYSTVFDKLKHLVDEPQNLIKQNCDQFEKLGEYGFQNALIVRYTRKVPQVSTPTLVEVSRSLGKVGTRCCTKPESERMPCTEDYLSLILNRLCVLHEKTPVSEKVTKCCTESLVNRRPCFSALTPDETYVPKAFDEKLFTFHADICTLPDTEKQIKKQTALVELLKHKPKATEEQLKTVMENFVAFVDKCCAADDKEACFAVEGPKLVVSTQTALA
Experimental: as §1, §2, §3

[8] = tested on: Mucin (pig); assay: as above; assay type: binding; settings: (7) Mucin (pig), O-linked glycan including L-fucose; thyroglobulin value = 100%
Experimental: as §1, §2, §3

[9] = tested on: glycoproteins; assay: hemagglutinating inhibition test with glycoproteins (sugar binding specificity); assay type: cell-based
From the text: The sugar binding specificity of lectin also can be confirmed by using erythrocytes that can be specifically agglutinated by the lectin to investigate the sugar type that may inhibit the agglutination of the erythrocytes and the concentration thereof.
Various monosaccharides, oligosaccharides, and polysaccharides shown in Table 2 and glycoproteins shown in Table 3 were subjected to hemagglutinating inhibition test to evaluate PTL of Example 1 and the SRL of Example 2 with regard to the sugar binding specificity.
On a 96 well U-bottom microtiter plate, double dilution series of 10 μl of monosaccharide, oligosaccharide, polysaccharide, and glycoprotein solutions were prepared. Then, lectin solution adjusted in advance to have titer 4 was added in an amount of 10 μl to the respective wells. Then, the plate was subjected to a still-standing at a room temperature for one hour for sensitization. Then, 10 μl of 4%-red blood cell suspension was added to the respective wells and the plate was further subjected to a still-standing at a room temperature for one hour. […] The lowest concentration showing the inhibition was assumed as the minimum inhibition concentration. The lower the minimum inhibition concentration is, the higher the specificity to lectin is.
For comparison, the sugar binding specificity was evaluated using the following commercially-available lectins: Comparison Example 1: AAL (SEIKAGAKU BIOBUSINESS CORPORATION—J-OIL MILLS, Inc.), Comparison Example 2: AOL (TOKYO CHEMICAL INDUSTRY CO., LTD.—Gekkeikan Sake Company, Ltd.), Comparison Example 3: LCA (SEIKAGAKU BIOBUSINESS CORPORATION—J-OIL MILLS, Inc.), and Comparison Example 4: PSA (SEIKAGAKU BIOBUSINESS CORPORATION—J-OIL MILLS, Inc.).

[10] = inhibitor: Bovine blood serum albumin
[11] = inhibitor: Human immune globulin A
[12] = inhibitor: Human immune globulin G
[13] = inhibitor: α1-acidic glycoprotein

| Molecule | interaction strength (relative value) by ELISA [1] | interaction strength (relative value) by ELISA [2] | interaction strength (relative value) by ELISA [3] | interaction strength (relative value) by ELISA [4] | interaction strength (relative value) by ELISA [5] | interaction strength (relative value) by ELISA [6] | interaction strength (relative value) by ELISA [7] | interaction strength (relative value) by ELISA [8] | minimum inhibition concentration of hemagglutination ([9]; inhibitor: Asialofetuin) | minimum inhibition concentration of hemagglutination ([9]; inhibitor: Asialomucin (pig)) | minimum inhibition concentration of hemagglutination [9, 10] | minimum inhibition concentration of hemagglutination ([9]; inhibitor: Casein) | minimum inhibition concentration of hemagglutination ([9]; inhibitor: Fetuin) | minimum inhibition concentration of hemagglutination [9, 11] | minimum inhibition concentration of hemagglutination [9, 12] | minimum inhibition concentration of hemagglutination ([9]; inhibitor: Lactoferrin) | minimum inhibition concentration of hemagglutination ([9]; inhibitor: Mucin (bovine)) | minimum inhibition concentration of hemagglutination ([9]; inhibitor: Mucin (pig)) | minimum inhibition concentration of hemagglutination ([9]; inhibitor: Ribonuclease) | minimum inhibition concentration of hemagglutination ([9]; inhibitor: Thyroglobulin) | other results |
| --- | --- | --- | --- | --- | --- | --- | --- | --- | --- | --- | --- | --- | --- | --- | --- | --- | --- | --- | --- | --- | --- |
| Pholiota terrestris lectin [PTL, novel L-fucose α1→6 specific lectin purified from the mushroom Pholiota terrestris] | X (Relative values of 10 or less) | X (Relative values of 10 or less) | ⊚ (Relative values of 120 to 80) | X (Relative values of 10 or less) | ⊚ (Relative values of 120 to 80) | X (Relative values of 10 or less) | X (Relative values of 10 or less) | X (Relative values of 10 or less) | >250 μl/ml | >250 μl/ml | >250 μl/ml | >250 μl/ml | >250 μl/ml | >250 μl/ml | >250 μl/ml | >250 μl/ml | >250 μl/ml | >250 μl/ml | >250 μl/ml | 250 μl/ml | minimum inhibition concentration of hemagglutination ([9]; inhibitor: Transferrin): >250 μl/ml; minimum inhibition concentration of hemagglutination [9, 13]: >250 μl/ml |
| Aleuria aurantia lectin (protein) PTEFLYTSKIAAISWAATGGRQQRVYFQDLNGKIREAQRGGDNPWTGGSSQNVIGEAKLFSPLAAVTWKSAQGIQIRVYCVNKDNILSEFVYDGSKWITGQLGSVGVKVGSNSKLAALQWGGSESAPPNIRVYYQKSNGSGSSIHEYVWSGKWTAGASFGSTVPGTGIGATAIGPGRLRIYYQATDNKIREHCWDSNSWYVGGFSASASAGVSIAAISWGSTPNIRVYWQKGREELYEAAYGGSWNTPGQIKDASRPTPSLPDTFIAANSSGNIDISVFFQASGVSLQQWQWISGKGWSIGAVVPTGTPAGW | ⊚ (Relative values of 120 to 80) | Δ (Relative values of 50 to 10) | Δ (Relative values of 50 to 10) | X (Relative values of 10 or less) | ⊚ (Relative values of 120 to 80) | X (Relative values of 10 or less) | X (Relative values of 10 or less) | ⊚ (Relative values of 120 to 80) | >250 μl/ml | 31.3 μl/ml | >250 μl/ml | >250 μl/ml | >250 μl/ml | >250 μl/ml | >250 μl/ml | >250 μl/ml | >250 μl/ml | 15.6 μl/ml | >250 μl/ml | 125 μl/ml | minimum inhibition concentration of hemagglutination ([9]; inhibitor: Transferrin): >250 μl/ml; minimum inhibition concentration of hemagglutination [9, 13]: >250 μl/ml |
